Results taken from patent US20060115476A1 (ADIENNE, published 2006).

B1: scFv TS-A12/22 (scFv, not shown: small tags and cut ends)
scFv: DIRMTQSPDSLAVSLGERATINCKSSQSVLYSSNNKNYLAWYQQKPGQPPKLLIYWASTRESGVPDRFSGSGSGTDFTLTISSLQAEDVAVYYCQQYYSTPQLTFGGRTKVDIKSGGSTITSYNVYYTKLSSSGTQVQLQQSEGGVVQPGRSLRLSCAASGFTFSSYGMNWVRQAPGKGLEWVSYISSSSSTIYYADSVKGRFTISRDNSKNTLYLQMNSLRAEDTAVYYCARGPGMDVWGQGTTVTVSS
notes: Obtained from TS-A12 by VL chain shuffling; also called TS-A12/22 antibody
B2: unrelated peptide CS5, derived from fibronectin (GEEIQIGHIPREDVDYHLYP) (peptide)
peptide: GEEIQIGHIPREDVDYHLYP

Key:
C5 beta chain = target: T1, C5 beta chain (human, UniProt P01031 19-673, reduced with DTT and treated with iodoacetamide (alkylated cysteines)); test: Western blot
T1 construct: domain: beta chain; Separated from purified C5 by reduction, alkylation and gel filtration on Superose 12; also called beta sub-unit of C5; C5 beta subunit
T1 sequence (looked up): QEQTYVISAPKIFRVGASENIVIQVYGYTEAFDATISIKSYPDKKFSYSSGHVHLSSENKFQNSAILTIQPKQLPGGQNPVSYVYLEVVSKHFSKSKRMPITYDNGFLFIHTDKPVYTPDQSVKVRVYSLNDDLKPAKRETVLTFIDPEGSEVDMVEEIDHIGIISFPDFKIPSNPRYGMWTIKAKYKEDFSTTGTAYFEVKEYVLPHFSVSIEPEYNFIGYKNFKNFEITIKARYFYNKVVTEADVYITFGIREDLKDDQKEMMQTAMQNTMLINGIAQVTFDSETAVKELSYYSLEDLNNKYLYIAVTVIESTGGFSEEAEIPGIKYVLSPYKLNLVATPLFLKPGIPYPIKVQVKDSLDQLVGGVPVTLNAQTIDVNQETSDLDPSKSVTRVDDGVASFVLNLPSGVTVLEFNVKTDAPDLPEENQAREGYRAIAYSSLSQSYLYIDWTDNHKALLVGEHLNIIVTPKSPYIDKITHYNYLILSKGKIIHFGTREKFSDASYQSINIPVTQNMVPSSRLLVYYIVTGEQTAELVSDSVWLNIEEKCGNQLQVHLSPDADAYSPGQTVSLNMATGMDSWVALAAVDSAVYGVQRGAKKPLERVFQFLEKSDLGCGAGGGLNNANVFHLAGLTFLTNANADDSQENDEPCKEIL
Protocol: Briefly the two subunits were electrophoresed in separate wells and transferred on nitrocellulose membranes. A solution containing Tris 50 mM pH 7.6, 0.5 M NaCl and 4% skimmed powder milk was used to block non-specific sites for 1 hour at 37° C. […] The enzymatic reaction was developed with blue tetrazolium and 5-bromo-4-chlorine-3-indolil phosphate (Sigma-Aldrich, 0.30 mg/ml) diluted in 0.1 M Tris-HCl pH 9.5 containing 0.1 M NaCl and 5 mM MgCl₂.

[1] = target: T2, C5 component of the complement system (purified C5) (human, UniProt P01031 19-673; P01031 678-1676); test: SPR, BIACORE 2000, C5 immobilised on the chip
T2 construct: domain: beta chain;domain: alpha chain; In haemolytic assays it was purified C5 or the C5 of human serum; also called factor C5; C5 antigen
T2 sequence (P01031 678-1676 limits assumed, one chain of several): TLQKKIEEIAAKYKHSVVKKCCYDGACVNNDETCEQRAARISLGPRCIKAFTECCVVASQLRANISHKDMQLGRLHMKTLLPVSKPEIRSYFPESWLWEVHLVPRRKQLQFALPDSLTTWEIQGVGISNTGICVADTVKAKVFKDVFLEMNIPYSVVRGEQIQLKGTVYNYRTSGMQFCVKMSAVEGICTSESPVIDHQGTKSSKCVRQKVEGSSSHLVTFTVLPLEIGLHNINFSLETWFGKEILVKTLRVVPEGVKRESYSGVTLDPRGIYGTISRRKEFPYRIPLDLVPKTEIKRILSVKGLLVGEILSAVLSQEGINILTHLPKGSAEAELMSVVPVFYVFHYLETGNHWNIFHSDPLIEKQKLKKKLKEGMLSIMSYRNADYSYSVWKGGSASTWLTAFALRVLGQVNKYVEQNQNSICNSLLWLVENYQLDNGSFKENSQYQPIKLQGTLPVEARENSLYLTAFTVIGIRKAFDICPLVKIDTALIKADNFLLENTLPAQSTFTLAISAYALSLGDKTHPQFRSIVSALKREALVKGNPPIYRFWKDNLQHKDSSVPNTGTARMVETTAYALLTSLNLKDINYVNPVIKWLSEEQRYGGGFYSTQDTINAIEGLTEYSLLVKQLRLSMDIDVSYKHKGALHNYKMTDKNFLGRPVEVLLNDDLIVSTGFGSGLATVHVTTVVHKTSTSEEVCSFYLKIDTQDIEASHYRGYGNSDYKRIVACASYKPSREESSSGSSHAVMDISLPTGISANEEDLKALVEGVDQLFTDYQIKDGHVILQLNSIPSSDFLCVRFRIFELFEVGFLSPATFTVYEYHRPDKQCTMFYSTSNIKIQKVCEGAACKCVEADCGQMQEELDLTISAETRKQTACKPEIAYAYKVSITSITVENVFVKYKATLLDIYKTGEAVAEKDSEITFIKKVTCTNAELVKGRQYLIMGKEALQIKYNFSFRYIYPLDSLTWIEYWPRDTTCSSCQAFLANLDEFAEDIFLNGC
Protocol: The microchip (CM5, Biacore) was prepared by direct conjugation of the C5 antigen with amines (20 μg/ml in 10 mM Sodium Acetate pH 4.5). The final level of immobilisation turned out to be approximately 1000 RU (Resonance Units). Association and dissociation of antibody molecules from the bio-chip were measured using an optical detection system (Surface Plasmon Resonance).
The analysis was carried out at 25° C., at a flow of 15 μl/min, using 4 different scFv concentrations in the range comprised between 100-300 nM, in PBS, 0.005% P20 (Biacore). The binding curves were interpolated 1:1 according to the model of Langmuir, using the dedicated software termed BIAevaluation (version 3.5) with correction for the mass transfer.

[2] = target: B2; test: competitive ELISA: scFv pre-incubated with the peptide, binding to C5 on solid phase
Excerpt: (§1) This peptide corresponds to region 727-744 of the mature protein and comprises the cleavage site of C5 convertase (indicated by the arrow) between glycine 733 and arginine 734 according to SwissProt numbering for human C5 (SEQ ID P01031). The peptide was used in a competitive ELISA assay on the C5 protein on solid phase. […] (SEQ ID No. 16 of sequence listing) corresponding to a fibronectin derived peptide termed CS5.

scFv TS-A12/22 = target: B1; test: competitive ELISA: scFv TSA-12/22 (1 µg/ml) pre-incubated with the peptide, then binding to C5 on solid phase, given as % of the saline control
Excerpt: as §1

Binder	binding result (C5 beta chain)	Kd [1] [nM]	binding result [2]	binding result (scFv TS-A12/22)
B1	no binding (tested: 100 ng of beta chain)	18	no binding (tested: 800 ng)	
B2				no binding (tested: 800 ng)
